# Experimental data published in the domain aggregation screens of Martell et al. (2025).
# Assay: soluble fraction after stress (log2 fold change); higher = more stays soluble; pooled small domains, quantitative proteomics
# Details: stress: pH 4
# Method in brief: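 How much of each domain stays soluble after acid stress, expressed as a fold change, is used to gauge aggregation propensity. Pooled custom libraries of small domains underwent pH 4 stress before high-throughput quantitative proteomics. A higher log2 value means more of the domain stayed soluble.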
row,Sequence,soluble fraction (log2)
1,HMLNERQKKIIKILKDNKNWMTGKELSEFLNVSDRTIRSDIEYINRYNNALIESNVKNGYHLNFE,-0.0338
2,HMQPIEIQDRITKAFERSAALEAKNINVEVDGHTVKLTGTVHSLTEKEEARKAAFFAPGVTKVENHLIVDY,-0.0498
3,HMEFLLAIQPFVLLTDHANLTFLREQTDSMMKRIQINISGFEIEFRYVPGLTNILPDKMSRV,-0.199
4,HMDVSEITTIKWIIKETKLGINEKILIYVNSKNFTVETLMEGFEIMSKYLVENVSSDKIVYIKN,0.22
5,HMLVPWKSANLFKLVEPNFRLAERKIPMLPSADREKLQEIMSDMKDAIVDNDKMALMKLDEELTDFLFDFV,-1.03
6,HMSSVHTMEVKSTTQIKVLDENKNLSSYYSMKNPVSFNYRLFFLNQDELKKLQEDLKTNNDIQSIDIKYA,-0.944
7,HMKKSGFFSAGDRIQLTDNKGRQYSFNITEGKEFHTHQGFIKHDDLIGMPEGSVVSINSTTGVVQKFMAF,-0.584
8,HMGGFSVTAEAFDGTPEVGKTVGFTAGSTKIKVEDTKGDATFGTILEKETVGFGEGKYTYFYIGL,-0.276
9,HMETLGADLRALRKSRGLTLLDMAESLGRSVGWLSQVERDLSDPSISDLREIAELLGVPISMLFRH,-1.33
10,HMNNLKTKELSKIGYTNDKARSLVISIIPKHFKYHSKSEIIELLTNIKNKPEDYVSDEILGKIAETFMEKI,-1.19
11,HMLVMTDNVIKAINDLLNYEAAAGIKKKQRYTAYQIYKELSEQGVYHGSRRRMEEVVSKLRVERNQI,-0.249
12,HMGGEGQIEIREREGIPAEAWVDGVMRGQTPLRVEHVSIGTRRVELRAEGRPPVAADVLVRPTVTALVELS,-0.192
13,HMKAGAVFNEGDVLYPKIGGLKLMAAAGEGGKVVATLAKTDEMIYMGEEQSGFVKVESGSGSGWVKKILVA,0.202
14,HMTTKYMVLVNWVKEKVRTNELKTGEKLYSEHEFSRMFHMSRQTVRHGISILERENIVERRQGSGTFIKDA,-0.223
15,HMLVSPLDEIPGIGRNRKKTLLNHFGSAKTIEGASLEDLKKVDGISELIAKKIYNYFHLNKNF,0.104
16,HMPVAPTYALTVKTDPPSANVRLLNSPTPYQPGVRLPSGNYDIEVTQSGYATRKESVRIADRDVALNIAL,0.0432
17,HMKIPIIYQPLKNAKRIKIYIPYELKELRTIFKKINTTFWHPNQKLWSIIYTQENVALIKNLFGKNYKIVN,-0.0514
18,HMEDAFLQRLISIIEANLSNVDFNVKMLAEQLNMSQPTLYRKVKQRSELSVIDMIRSIRILSLIHISEPTR,-0.919
19,HMSNLTDLVSAKEAEVYLHFLESGSTAGMTEAELRAVRKIEELIQSNKIDYNGILRIRNETVK,-0.137
20,HMPSPTPEQVLKAFTDAAMQKNTVEELKQAFAKAWKMLEGTPEQHKAQDVYNIRRDELEGAA,-0.0378
21,HMKKNNTTPIPKTLNYVNIKGLSNEAVERLNKHKPSTLGQASRLEGITPAATSLISIAIKKNQLLEKAES,0.123
22,HMDKLFNRQTLGGVELTQKQIEDLNAGKAIFVEGMQRKDGEVFSSYVKLDEATGRPSYTRYNPDSP,0.0109
23,HMKLVESALSILEEAVDRDFHGNLGDAARYFDIPYQTIYSWLKSRKRVPSLRALEPVLEKLGVSFTT,-0.479
24,HMQDEREEIAVEDVVGMPLWQARKVIADQGFRVLDDGAGDIVIAQMPSGGGKLIEGGQVMLYTYTD,-0.201
25,HMKTERTVRVQDQHLHYTLEEKPIKNVNLRIRPDGSVYVSAPFGTSRTLIDDFVASKSKQILAIQQAQSAM,0.22
26,HMRAVPSIAFVTQKLIEQGVTMEQLVRSLLLDHEEYENDDSLERTADELFGKARMIISNYTPE,-1.04
27,HMPNPSAGRVHIDALLPFDRVEVTDMQGSLLLDHSFSPRRAVDLDLNARGTLLYTLWSKGHLLGKGRVVR,0.213
28,HMFQEGLVAPPAYTRPESFRGWEVPEILRSGNFPAIAKWQHEESLRLTRERRPAMLEAYERRT,-0.415
29,HMGSLKEKIVLLEKLYQQNPSEEIKLLLINTYQLNHQYIQARKLFFTLTPEQKEKLPLASEFLIFL,-0.725
30,HMHGERVVTAGQTVRVVFTSNGLQVSSEGKALAAGAVGDDIQVRAASGKVIRGTVTGPGVVQV,≥ 0.43
